Test [1] deals with pro-LC3B (residues 1-125) (human, UniProt Q9GZQ8 1-120). The test can be described thus: cell-based or functional assay.
In test [2] the target is LC3B-115 (residues 1-115) (human, UniProt Q9GZQ8 1-115). The test can be described thus: ITC; 25 °C; 20 mM HEPES pH 7.5, 200 mM NaCl, 0.5 mM TCEP; 10~68 uM LC3B proteins in the cell, 10-fold higher concentration of ATG4b in the syringe; single-site binding model. To be noted: both partners purified.
Test [3] has as its target LC3B-I (residues 1-120) (human, UniProt Q9GZQ8 1-120). The test is described as above. To be noted: both partners purified.

B1: ATG4b-366 (domain or fragment)
chain: MDAATLTYDTLRFAEFEDFPETSEPVWILGRKYSIFTEKDEILSDVASRLWFTYRKNFPAIGGTGPTSDTGWGCMLRCGQMIFAQALVCRHLGRDWRWTQRKRQPDSYFSVLNAFIDRKDSYYSIHQIAQMGVGEGKSIGQWYGPNTVAQVLKKLAVFDTWSSLAVHIAMDNTVVMEEIRRLCRTSVPCAGATAFPADSDRHCNGFPAGAEVTNRPSPWRPLVLLIPLRLGLTDINEAYVETLKHCFMMPQSLGVIGGKPNSAHYFIGYVGEELIYLDPHTTQPAVEPTDGCFIPDESFHCQHPPCRMSIAELDPSIAVGFFCKTEDDFNDWCQQVKKLSLLGGALPMFELVELQPSHLACPDVLN
B1: the “fold decrease in KM of cleavage of the FRET substrate CFP-proLC3B-YFP, further fold against ATG4b-382” value in test [1] was found to be 2.6 fold.

B2: ATG4b WT (full-length ATG4b) (enzyme)
chain: MDAATLTYDTLRFAEFEDFPETSEPVWILGRKYSIFTEKDEILSDVASRLWFTYRKNFPAIGGTGPTSDTGWGCMLRCGQMIFAQALVCRHLGRDWRWTQRKRQPDSYFSVLNAFIDRKDSYYSIHQIAQMGVGEGKSIGQWYGPNTVAQVLKKLAVFDTWSSLAVHIAMDNTVVMEEIRRLCRTSVPCAGATAFPADSDRHCNGFPAGAEVTNRPSPWRPLVLLIPLRLGLTDINEAYVETLKHCFMMPQSLGVIGGKPNSAHYFIGYVGEELIYLDPHTTQPAVEPTDGCFIPDESFHCQHPPCRMSIAELDPSIAVGFFCKTEDDFNDWCQQVKKLSLLGGALPMFELVELQPSHLACPDVLNLSLDSSDVERLERFFDSEDEDFEILSL
On to B2, for which, in test [2], the “stoichiometry N” value came out at 0.9 ± 0.2. Moreover, in test [3], binding was put at a Kd of 4.7 µM and the “stoichiometry N” value was found to be 0.9 ± 0.2.
